Assays:
[1] = target: T1, SMARCA4 (SWI/SNF related, matrix associated, actin dependent regulator of chromatin, subfamily a, member 4) (human, UniProt P51532 1-1647, limits assumed); assay: inter-protein BS3 crosslink, CX-MS of HA-PHF10-purified PBAF complexes from HEK-293T cells
T1 construct: Endogenous subunit co-purified in native PBAF complex; The crosslink positions count on P51532; also called BRG1; BAF190

[2] = target: T2, ARID1A (human, UniProt O14497 2-2285); assay: HA affinity purification from HEK-293T nuclear extract, glycerol gradient fraction 15, mass spectrometry (co-purification in the complex)
T2 construct: also called BAF250A; O14497_ARI1A

[3] = target: T3, PBRM1, entry C9J053 (13.6 kDa) (human); assay: as above
T3 construct: Separate fragment entry; gene symbol cut off in print; also called C9J053_C9J053

[4] = target: T4, DPF3, entry F8W7T1 (46.4 kDa) (human); assay: as above
T4 construct: Separate database entry of DPF3; also called F8W7T1_F8W7

[5] = target: T5, SMARCA4 (human, UniProt P51532 1-1647, limits assumed); assay: as above
T5 construct: also called BRG1; BAF190

[6] = target: T6, SS18 (human, UniProt Q15532 2-418, limits assumed); assay: as above
T6 construct: also called Q15532_SSXT

[7] = target: T7, SMARCE1 (human, UniProt Q969G3 1-411); assay: as above
T7 construct: also called BAF57; Q969G3_SMCE1

[8] = target: T8, ARID1B (human, UniProt Q8NFD5 84-2319, limits assumed); assay: as above
T8 construct: also called BAF250B; Q8NFD5_ARI1B

[9] = target: T9, SMARCC2 (human, UniProt Q8TAQ2 1-1214, limits assumed); assay: as above
T9 construct: also called BAF170; Q8TAQ2_SMRC2

[10] = target: T10, SMARCC1 (human, UniProt Q92922 2-1105); assay: as above
T10 construct: also called BAF155; Q92922_SMRC1

[11] = target: T11, ARID2 (human, UniProt Q68CP9 2-1835); assay: as above
T11 construct: also called BAF200; Q68CP9_ARID2

[12] = target: T12, A0A0A0MT49 (gene symbol printed cut off as 'SMA', about 188 kDa) (human); assay: as above
T12 construct: Separate database entry of the search; gene symbol cut off in print

[13] = target: T13, H0Y3S9 (gene symbol printed cut off as 'ARID', 29.4 kDa) (human); assay: as above
T13 construct: Which ARID gene is meant cannot be told from the print

[14] = target: T14, G5E975 (gene symbol printed cut off as 'SMA', 45.0 kDa) (human); assay: as above
T14 construct: Separate database entry of the search; gene symbol cut off in print

[15] = target: T15, SMARCA2 (human, UniProt P51531 1-1590, limits assumed); assay: as above
T15 construct: also called BRM; BAF190

[16] = target: T16, DPF1, entry C8C3P2 (45.0 kDa) (human); assay: as above
T16 construct: Separate database entry of DPF1; also called C8C3P2_C8C3

[17] = target: T17, SMARCA4 (human, UniProt P51532 1-1647, limits assumed); assay: inter-protein BS3 crosslinks (CX-MS), HA-BRD7-purified PBAF complexes from HEK-293T
T17 construct: Endogenous PBAF subunit; numbering on the printed UniProt entry; also called BRG1; BAF190

[18] = target: T18, SMARCC1 (SWI/SNF related, matrix associated, actin dependent regulator of chromatin subfamily c member 1) (human, UniProt Q92922 1-1105); assay: HA-GLTSCR1L purification from HEK-293T cells, silver stain and gradient MS
T18 construct: also called BAF155; HA-SMARCC1

T10 sequence (Q92922 2-1105 limits assumed): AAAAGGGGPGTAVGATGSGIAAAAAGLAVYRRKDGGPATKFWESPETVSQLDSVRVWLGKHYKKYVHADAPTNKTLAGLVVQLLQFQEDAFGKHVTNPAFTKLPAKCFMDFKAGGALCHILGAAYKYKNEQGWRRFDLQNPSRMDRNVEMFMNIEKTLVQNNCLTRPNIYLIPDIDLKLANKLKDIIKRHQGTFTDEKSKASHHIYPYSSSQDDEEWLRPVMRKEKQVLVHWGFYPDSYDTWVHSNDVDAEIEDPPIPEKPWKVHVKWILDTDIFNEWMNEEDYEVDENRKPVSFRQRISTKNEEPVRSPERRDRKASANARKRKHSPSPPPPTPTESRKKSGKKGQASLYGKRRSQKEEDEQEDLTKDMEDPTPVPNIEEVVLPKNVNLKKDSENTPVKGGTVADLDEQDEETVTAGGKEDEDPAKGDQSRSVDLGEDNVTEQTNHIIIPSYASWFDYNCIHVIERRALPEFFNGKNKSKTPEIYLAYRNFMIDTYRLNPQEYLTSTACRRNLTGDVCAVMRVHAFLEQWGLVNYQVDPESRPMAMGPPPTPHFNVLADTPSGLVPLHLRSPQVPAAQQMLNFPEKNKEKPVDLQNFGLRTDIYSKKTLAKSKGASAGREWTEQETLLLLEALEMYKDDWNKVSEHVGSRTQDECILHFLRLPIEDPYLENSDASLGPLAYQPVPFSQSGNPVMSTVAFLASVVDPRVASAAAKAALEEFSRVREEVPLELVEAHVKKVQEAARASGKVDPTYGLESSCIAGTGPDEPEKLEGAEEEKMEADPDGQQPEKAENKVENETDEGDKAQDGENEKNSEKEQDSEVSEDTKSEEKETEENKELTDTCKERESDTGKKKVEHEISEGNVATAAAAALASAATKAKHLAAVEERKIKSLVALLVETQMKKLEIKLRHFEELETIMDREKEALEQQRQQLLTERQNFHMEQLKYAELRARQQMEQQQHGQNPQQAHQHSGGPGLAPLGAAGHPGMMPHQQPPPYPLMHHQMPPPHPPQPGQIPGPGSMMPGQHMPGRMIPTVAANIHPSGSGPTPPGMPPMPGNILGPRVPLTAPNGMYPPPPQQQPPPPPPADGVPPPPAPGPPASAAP
T4 sequence (Q92784 whole entry): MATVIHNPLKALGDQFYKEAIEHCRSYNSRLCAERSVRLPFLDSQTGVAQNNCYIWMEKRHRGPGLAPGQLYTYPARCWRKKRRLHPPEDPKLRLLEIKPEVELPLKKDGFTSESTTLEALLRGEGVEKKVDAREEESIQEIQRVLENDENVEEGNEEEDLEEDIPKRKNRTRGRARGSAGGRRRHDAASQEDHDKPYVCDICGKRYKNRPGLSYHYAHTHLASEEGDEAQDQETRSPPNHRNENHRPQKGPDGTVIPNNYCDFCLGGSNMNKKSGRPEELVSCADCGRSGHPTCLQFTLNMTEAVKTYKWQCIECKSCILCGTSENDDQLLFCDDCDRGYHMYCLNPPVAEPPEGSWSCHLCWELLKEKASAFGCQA
T2 sequence (O14497 2-2285 limits assumed): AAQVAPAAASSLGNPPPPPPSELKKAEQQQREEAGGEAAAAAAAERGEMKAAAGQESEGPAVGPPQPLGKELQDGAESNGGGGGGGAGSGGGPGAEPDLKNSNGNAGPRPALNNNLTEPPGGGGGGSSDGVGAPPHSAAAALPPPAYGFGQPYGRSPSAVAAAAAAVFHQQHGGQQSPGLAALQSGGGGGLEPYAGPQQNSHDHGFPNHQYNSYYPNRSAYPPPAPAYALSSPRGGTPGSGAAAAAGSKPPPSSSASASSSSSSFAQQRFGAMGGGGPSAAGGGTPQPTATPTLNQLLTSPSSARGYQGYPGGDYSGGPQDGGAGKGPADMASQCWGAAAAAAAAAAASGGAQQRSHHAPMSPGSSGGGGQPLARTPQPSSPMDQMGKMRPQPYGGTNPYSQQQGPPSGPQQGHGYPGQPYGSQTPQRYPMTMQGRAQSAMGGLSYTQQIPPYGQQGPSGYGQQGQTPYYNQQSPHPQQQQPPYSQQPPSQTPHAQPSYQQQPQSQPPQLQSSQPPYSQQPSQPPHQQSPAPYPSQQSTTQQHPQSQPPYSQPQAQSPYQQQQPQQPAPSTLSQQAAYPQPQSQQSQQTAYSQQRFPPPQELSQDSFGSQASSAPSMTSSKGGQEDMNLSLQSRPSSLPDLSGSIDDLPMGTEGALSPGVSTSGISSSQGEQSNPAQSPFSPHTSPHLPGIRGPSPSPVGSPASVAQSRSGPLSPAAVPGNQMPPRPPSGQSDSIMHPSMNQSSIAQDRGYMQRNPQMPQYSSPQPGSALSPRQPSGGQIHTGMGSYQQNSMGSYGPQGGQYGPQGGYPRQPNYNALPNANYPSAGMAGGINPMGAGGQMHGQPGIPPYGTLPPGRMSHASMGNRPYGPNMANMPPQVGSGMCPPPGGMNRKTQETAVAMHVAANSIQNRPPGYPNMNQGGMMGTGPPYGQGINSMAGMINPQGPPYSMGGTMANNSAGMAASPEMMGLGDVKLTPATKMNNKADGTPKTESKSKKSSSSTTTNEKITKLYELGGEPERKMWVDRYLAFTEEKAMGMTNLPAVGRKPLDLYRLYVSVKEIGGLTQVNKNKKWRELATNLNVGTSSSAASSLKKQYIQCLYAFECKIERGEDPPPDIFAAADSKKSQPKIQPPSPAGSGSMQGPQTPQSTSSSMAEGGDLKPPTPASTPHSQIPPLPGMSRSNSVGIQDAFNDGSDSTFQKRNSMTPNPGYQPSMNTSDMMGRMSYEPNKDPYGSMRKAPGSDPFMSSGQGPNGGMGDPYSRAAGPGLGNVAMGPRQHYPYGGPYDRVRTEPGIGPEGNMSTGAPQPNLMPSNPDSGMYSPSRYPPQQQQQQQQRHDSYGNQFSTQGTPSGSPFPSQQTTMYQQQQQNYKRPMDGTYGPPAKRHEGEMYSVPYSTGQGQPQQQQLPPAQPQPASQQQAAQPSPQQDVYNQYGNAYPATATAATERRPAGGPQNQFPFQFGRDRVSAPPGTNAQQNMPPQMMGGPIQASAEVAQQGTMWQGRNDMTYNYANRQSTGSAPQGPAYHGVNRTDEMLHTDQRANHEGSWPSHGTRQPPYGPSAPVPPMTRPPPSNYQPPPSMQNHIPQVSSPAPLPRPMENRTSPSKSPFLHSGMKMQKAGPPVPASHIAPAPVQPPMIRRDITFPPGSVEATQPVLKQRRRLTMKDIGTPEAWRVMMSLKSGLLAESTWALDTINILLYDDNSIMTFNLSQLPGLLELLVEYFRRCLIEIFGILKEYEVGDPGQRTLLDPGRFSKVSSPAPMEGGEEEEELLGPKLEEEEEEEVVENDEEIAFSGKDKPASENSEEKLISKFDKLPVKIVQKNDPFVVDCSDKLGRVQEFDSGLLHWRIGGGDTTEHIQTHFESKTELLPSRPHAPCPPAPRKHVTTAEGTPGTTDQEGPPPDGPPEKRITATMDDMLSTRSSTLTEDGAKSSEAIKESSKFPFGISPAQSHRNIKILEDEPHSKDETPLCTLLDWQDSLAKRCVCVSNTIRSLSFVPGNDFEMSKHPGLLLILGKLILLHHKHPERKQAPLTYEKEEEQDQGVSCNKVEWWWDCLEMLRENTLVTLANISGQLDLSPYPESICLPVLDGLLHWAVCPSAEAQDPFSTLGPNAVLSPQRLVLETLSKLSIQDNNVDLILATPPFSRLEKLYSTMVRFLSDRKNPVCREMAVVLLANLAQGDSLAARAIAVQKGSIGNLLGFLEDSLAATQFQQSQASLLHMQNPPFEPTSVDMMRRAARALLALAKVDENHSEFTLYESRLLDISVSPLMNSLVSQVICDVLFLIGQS
T7 sequence (Q969G3 whole entry): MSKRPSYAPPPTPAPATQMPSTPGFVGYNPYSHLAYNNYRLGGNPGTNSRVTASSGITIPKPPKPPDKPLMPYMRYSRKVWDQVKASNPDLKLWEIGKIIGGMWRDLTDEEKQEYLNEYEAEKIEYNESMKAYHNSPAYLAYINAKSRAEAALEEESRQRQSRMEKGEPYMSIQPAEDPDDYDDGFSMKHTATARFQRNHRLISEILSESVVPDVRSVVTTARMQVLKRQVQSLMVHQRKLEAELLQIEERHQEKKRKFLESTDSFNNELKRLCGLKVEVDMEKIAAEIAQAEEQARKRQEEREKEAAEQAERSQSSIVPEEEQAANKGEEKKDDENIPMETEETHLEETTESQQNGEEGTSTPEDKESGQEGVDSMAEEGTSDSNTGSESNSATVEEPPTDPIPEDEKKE
T16 sequence (Q92782 whole entry): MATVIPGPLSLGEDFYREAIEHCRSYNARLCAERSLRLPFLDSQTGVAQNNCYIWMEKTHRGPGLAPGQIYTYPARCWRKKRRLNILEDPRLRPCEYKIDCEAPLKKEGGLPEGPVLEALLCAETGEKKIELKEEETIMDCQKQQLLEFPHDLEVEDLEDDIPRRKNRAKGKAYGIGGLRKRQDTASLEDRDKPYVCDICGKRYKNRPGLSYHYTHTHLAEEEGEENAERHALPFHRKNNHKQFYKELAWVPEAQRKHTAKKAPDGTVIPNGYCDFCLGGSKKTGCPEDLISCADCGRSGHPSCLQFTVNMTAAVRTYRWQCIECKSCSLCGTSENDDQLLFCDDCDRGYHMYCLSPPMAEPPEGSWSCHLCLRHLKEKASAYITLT
T6 sequence (Q15532 2-418 limits assumed): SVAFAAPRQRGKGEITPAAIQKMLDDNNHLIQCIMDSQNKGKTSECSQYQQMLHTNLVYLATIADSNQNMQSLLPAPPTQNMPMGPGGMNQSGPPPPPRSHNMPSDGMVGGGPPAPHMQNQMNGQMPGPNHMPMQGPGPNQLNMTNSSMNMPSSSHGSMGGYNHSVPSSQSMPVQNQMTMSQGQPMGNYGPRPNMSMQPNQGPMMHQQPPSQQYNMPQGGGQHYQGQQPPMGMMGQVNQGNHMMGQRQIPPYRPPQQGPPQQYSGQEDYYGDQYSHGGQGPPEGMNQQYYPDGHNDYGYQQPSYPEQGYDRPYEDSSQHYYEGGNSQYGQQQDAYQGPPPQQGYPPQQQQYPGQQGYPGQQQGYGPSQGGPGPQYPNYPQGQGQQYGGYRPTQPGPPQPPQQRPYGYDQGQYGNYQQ

B1: BRD7 (Bromodomain-containing protein 7) (other, human, UniProt Q9NPI1 1-651, looked up)
chain: MGKKHKKHKSDKHLYEEYVEKPLKLVLKVGGNEVTELSTGSSGHDSSLFEDKNDHDKHKDRKRKKRKKGEKQIPGEEKGRKRRRVKEDKKKRDRDRVENEAEKDLQCHAPVRLDLPPEKPLTSSLAKQEEVEQTPLQEALNQLMRQLQRKDPSAFFSFPVTDFIAPGYSMIIKHPMDFSTMKEKIKNNDYQSIEELKDNFKLMCTNAMIYNKPETIYYKAAKKLLHSGMKILSQERIQSLKQSIDFMADLQKTRKQKDGTDTSQSGEDGGCWQREREDSGDAEAHAFKSPSKENKKKDKDMLEDKFKSNNLEREQEQLDRIVKESGGKLTRRLVNSQCEFERRKPDGTTTLGLLHPVDPIVGEPGYCPVRLGMTTGRLQSGVNTLQGFKEDKRNKVTPVLYLNYGPYSSYAPHYDSTFANISKDDSDLIYSTYGEDSDLPSDFSIHEFLATCQDYPYVMADSLLDVLTKGGHSRTLQEMEMSLPEDEGHTRTLDTAKEMEITEVEPPGRLDSSTQDRLIALKAVTNFGVPVEVFDSEEAEIFQKKLDETTRLLRELQEAQNERLSTRPPPNMICLLGPSYREMHLAEQVTNNLKELAQQVTPGDIVSTYGVRKAMGISIPSPVMENNFVDLTEDTEEPKKTDVAECGPGGS
notes: Endogenous subunit co-purified in native PBAF complex; The crosslink positions count on Q9NPI1; also called Q9NPI1
binding result [1]: binds

B2: HA-SMARCD1 (other, human, UniProt Q96GM5 1-515, looked up)
chain: MAARAGFQSVAPSGGAGASGGAGAAAALGPGGTPGPPVRMGPAPGQGLYRSPMPGAAYPRPGMLPGSRMTPQGPSMGPPGYGGNPSVRPGLAQSGMDQSRKRPAPQQIQQVQQQAVQNRNHNAKKKKMADKILPQRIRELVPESQAYMDLLAFERKLDQTIMRKRLDIQEALKRPIKQKRKLRIFISNTFNPAKSDAEDGEGTVASWELRVEGRLLEDSALSKYDATKQKRKFSSFFKSLVIELDKDLYGPDNHLVEWHRTATTQETDGFQVKRPGDVNVRCTVLLMLDYQPPQFKLDPRLARLLGIHTQTRPVIIQALWQYIKTHKLQDPHEREFVICDKYLQQIFESQRMKFSEIPQRLHALLMPPEPIIINHVISVDPNDQKKTACYDIDVEVDDTLKTQMNSFLLSTASQQEIATLDNKIHETIETINQLKTQREFMLSFARDPQGFINDWLQSQCRDLKTMTDVVGNPEEERRAEFYFQPWAQEAVCRYFYSKVQQRRQELEQALGIRNT
notes: also called BAF60A; Q96GM5_SMRD1; not shown: HA tag
total peptides [2]: 321 peptides | unique peptides [2]: 100 peptides | total peptides [3]: 1 peptides | unique peptides [3]: 1 peptides | total peptides [4]: 2 peptides | unique peptides [4]: 1 peptides | total peptides [5]: 153 peptides | unique peptides [5]: 53 peptides | total peptides [6]: 3 peptides | unique peptides [6]: 2 peptides | total peptides [7]: 114 peptides | unique peptides [7]: 33 peptides | total peptides [8]: 189 peptides | unique peptides [8]: 75 peptides | total peptides [9]: 172 peptides | unique peptides [9]: 55 peptides | total peptides [10]: 403 peptides | unique peptides [10]: 88 peptides | total peptides [11]: 55 peptides | unique peptides [11]: 41 peptides | total peptides [12]: 8 peptides | unique peptides [12]: 2 peptides | total peptides [13]: 1 peptides | unique peptides [13]: 1 peptides | total peptides [14]: 3 peptides | unique peptides [14]: 2 peptides | total peptides [15]: 206 peptides | unique peptides [15]: 74 peptides | total peptides [16]: 1 peptides | unique peptides [16]: 1 peptides

B3: PHF10 (other, human, UniProt Q8WUB8 2-498, looked up)
chain: AAAAGPGAALSPRPCDSDPATPGAQSPKDDNEDNSNDGTQPSKRRRMGSGDSSRSCETSSQDLGFSYYPAENLIEYKWPPDETGEYYMLQEQVSEYLGVTSFKRKYPDLERRDLSHKEKLYLRELNVITETQCTLGLTALRSDEVIDLMIKEYPAKHAEYSVILQEKERQRITDHYKEYSQMQQQNTQKVEASKVPEYIKKAAKKAAEFNSNLNRERMEERRAYFDLQTHVIQVPQGKYKVLPTERTKVSSYPVALIPGQFQEYYKRYSPDELRYLPLNTALYEPPLDPELPALDSDGDSDDGEDGRGDEKRKNKGTSDSSSGNVSEGESPPDSQEDSFQGRQKSKDKAATPRKDGPKRSVLSKSVPGYKPKVIPNAICGICLKGKESNKKGKAESLIHCSQCENSGHPSCLDMTMELVSMIKTYPWQCMECKTCIICGQPHHEEEMMFCDMCDRGYHTFCVGLGAIPSGRWICDCCQRAPPTPRKVGRRGKNSKEG
notes: Endogenous PBAF subunit; numbering on the printed UniProt entry; also called BAF45A
binding result [17]: binds

B4: GLTSCR1L (BRD4 Interacting Chromatin Remodeling Complex Associated Protein Like) (other, human, UniProt Q6AI39 1-1079, looked up)
chain: MDDDDDSCLLDLIGDPQALNYFLHGPSNKSSNDDLTNAGYSAANSNSIFANSSNADPKSSLKGVSNQLGEGPSDGLPLSSSLQFLEDELESSPLPDLTEDQPFDILQKSLQEANITEQTLAEEAYLDASIGSSQQFAQAQLHPSSSASFTQASNVSNYSGQTLQPIGVTHVPVGASFASNTVGVQHGFMQHVGISVPSQHLSNSSQISGSGQIQLIGSFGNHPSMMTINNLDGSQIILKGSGQQAPSNVSGGLLVHRQTPNGNSLFGNSSSSPVAQPVTVPFNSTNFQTSLPVHNIIIQRGLAPNSNKVPINIQPKPIQMGQQNTYNVNNLGIQQHHVQQGISFASASSPQGSVVGPHMSVNIVNQQNTRKPVTSQAVSSTGGSIVIHSPMGQPHAPQSQFLIPTSLSVSSNSVHHVQTINGQLLQTQPSQLISGQVASEHVMLNRNSSNMLRTNQPYTGPMLNNQNTAVHLVSGQTFAASGSPVIANHASPQLVGGQMPLQQASPTVLHLSPGQSSVSQGRPGFATMPSVTSMSGPSRFPAVSSASTAHPSLGSAVQSGSSGSNFTGDQLTQPNRTPVPVSVSHRLPVSSSKSTSTFSNTPGTGTQQQFFCQAQKKCLNQTSPISAPKTTDGLRQAQIPGLLSTTLPGQDSGSKVISASLGTAQPQQEKVVGSSPGHPAVQVESHSGGQKRPAAKQLTKGAFILQQLQRDQAHTVTPDKSHFRSLSDAVQRLLSYHVCQGSMPTEEDLRKVDNEFETVATQLLKRTQAMLNKYRCLLLEDAMRINPSAEMVMIDRMFNQEERASLSRDKRLALVDPEGFQADFCCSFKLDKAAHETQFGRSDQHGSKASSSLQPPAKAQGRDRAKTGVTEPMNHDQFHLVPNHIVVSAEGNISKKTECLGRALKFDKVGLVQYQSTSEEKASRREPLKASQCSPGPEGHRKTSSRSDHGTESKLSSILADSHLEMTCNNSFQDKSLRNSPKNEVLHTDIMKGSGEPQPDLQLTKSLETTFKNILELKKAGRQPQSDPTVSGSVELDFPNFSPMASQENCLEKFIPDHSEGVVETDSILEAAVNSILEC
notes: also called BICRAL; HA-GLTSCR1L
binding result [18]: binds
